Consider one molecule from patent CN114591427A (SHENZHEN LIGHT AND BIOTECHNOLOGY CO LTD; GUANGDONG PEOPLES …, dated 2022).

For the assay, the target named is T1, MPT32蛋白 in protein extracts of clinical samples of tuberculosis patients (结核分枝杆菌 (Mycobacterium tuberculosis), UniProt P9WIR7 40-325).
T1 construct: Native antigen detected by western blot in patient samples; also called 结核分枝杆菌MPT32蛋白; 抗原蛋白
T1 sequence (looked up): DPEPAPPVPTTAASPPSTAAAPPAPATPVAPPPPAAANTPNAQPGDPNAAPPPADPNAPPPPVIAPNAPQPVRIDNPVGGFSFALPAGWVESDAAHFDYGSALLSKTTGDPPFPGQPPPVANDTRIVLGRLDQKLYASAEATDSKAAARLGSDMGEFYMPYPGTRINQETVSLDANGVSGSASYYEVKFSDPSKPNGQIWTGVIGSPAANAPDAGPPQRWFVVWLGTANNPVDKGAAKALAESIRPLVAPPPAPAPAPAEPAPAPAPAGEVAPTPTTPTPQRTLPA
Nature of the assay: western blot of protein extracts of clinical samples. For orientation: A western blot detects proteins with antibodies after separation by electrophoresis.

B1: 鼠抗MPT32蛋白单克隆抗体 (secreted by hybridoma cell line 13B12, CCTCC NO:C2021305) (antibody, V domains shown)
VH: QVQLQQSGAELVKPGASVKMSCKASGFTFTSYWINWVKQRPGQGLEWIGDLYPGRGITNYNEKFKPKATLTLDTSSSTAYMQLSSLTSEDSAVYYCSTGPYWGQGTILTVSS
VL: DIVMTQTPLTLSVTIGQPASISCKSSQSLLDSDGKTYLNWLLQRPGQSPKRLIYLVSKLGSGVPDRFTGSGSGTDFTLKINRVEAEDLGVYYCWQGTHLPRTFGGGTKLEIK
notes: also called 鼠抗MPT32单克隆抗体; MPT32蛋白抗体
Regarding B1, the binding result is recorded as “binds”.
